Assays:
[1] = biological target: T1, 3T3 cells that over-express human cMet (Homo sapiens, UniProt P08581); experiment: Whole cell ELISA of peptide-displaying phage; format: cell-based; conditions: phage isolate; 3T3 cells expressing human cMet vs. non-expressing 3T3 cells
T1 construct: expressed in transfected cells; host or cells: 3T3 cells
Method: Whole cell ELISAs were performed using 3T3 cells that over-express human cMet. […] Briefly, 96-well plates were seeded with 10^5 cells per well. The plates were centrifuged for 5 minutes at 1600 rpm to pellet the cells. The resulting cell layer was fixed with 0.1% (v/v) glutaraldehyde for 12 minutes at 37 C. […] Peptide-displaying phage also were blocked in the above solution for 1 hour at 37 C. 100 μL of blocked phage was then added to each well and the plates were incubated for 1 hour at room temperature. The plates were washed with PBST. cMet-binding peptide-displaying phage were detected using an HRP-conjugated anti-M13 antibody.

cMet-Fc fusion protein = cMet-Fc fusion protein (Homo sapiens, UniProt P08581); experiment: Protein phage ELISA: peptide-displaying phage binding to soluble cMet-Fc versus TRAIL-Fc; conditions: phage isolate; cMet-Fc vs. TRAIL-Fc
Chain of cMet-Fc fusion protein (P08581 25-307 limits assumed): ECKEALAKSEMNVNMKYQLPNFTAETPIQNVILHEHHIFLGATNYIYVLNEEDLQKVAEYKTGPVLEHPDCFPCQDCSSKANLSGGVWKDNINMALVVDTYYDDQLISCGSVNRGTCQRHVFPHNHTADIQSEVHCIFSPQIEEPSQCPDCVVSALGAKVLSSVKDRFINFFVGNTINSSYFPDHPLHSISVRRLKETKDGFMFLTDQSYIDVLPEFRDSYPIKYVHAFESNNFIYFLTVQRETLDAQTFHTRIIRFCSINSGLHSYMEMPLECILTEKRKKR
Chain of cMet-Fc fusion protein (P08581 with tags, fused parts or gaps limits assumed): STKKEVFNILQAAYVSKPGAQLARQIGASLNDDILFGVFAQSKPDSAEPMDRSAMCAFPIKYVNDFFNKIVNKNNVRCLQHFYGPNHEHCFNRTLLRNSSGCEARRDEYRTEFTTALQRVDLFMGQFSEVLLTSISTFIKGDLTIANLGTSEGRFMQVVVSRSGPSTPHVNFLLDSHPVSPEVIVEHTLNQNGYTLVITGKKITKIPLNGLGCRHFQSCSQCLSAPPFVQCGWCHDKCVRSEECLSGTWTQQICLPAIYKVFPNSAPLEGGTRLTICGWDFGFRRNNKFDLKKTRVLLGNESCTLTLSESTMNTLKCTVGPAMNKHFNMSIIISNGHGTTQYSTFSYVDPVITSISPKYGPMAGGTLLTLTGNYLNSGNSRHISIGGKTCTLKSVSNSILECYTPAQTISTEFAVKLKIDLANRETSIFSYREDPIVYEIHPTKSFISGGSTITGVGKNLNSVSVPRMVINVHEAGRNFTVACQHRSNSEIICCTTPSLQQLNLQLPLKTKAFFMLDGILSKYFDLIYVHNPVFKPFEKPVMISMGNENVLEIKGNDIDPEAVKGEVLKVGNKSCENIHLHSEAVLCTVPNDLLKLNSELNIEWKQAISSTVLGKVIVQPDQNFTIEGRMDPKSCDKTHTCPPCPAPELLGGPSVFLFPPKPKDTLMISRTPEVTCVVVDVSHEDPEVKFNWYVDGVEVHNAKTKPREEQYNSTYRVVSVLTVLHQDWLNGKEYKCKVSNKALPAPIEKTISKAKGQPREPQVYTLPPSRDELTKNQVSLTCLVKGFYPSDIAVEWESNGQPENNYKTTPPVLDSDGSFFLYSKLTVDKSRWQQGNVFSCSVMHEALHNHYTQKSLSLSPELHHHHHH
Method: Protein phage ELISAs using peptide-displaying phage isolates from the various selection campaigns were performed to determine specificity of the peptides for cMet versus an unrelated Fc-fusion protein (TRAIL-Fc). Briefly, 384-well plates were coated overnight at 4 C with 0.5 μg/mL of cMet-Fc fusion protein or TRAIL-Fc fusion protein (background). The plates were blocked for 2 hours 37C with 3% (w/v) BSA in PBS containing 0.05% (v/v) Tween-20 (PBST). The plates were washed with PBST and 100 μL of peptide-displaying phage were added to each well. The plates were incubated for 2 hours at room temperature and washed with PBST. cMet-binding peptide-displaying phage were detected using an HRP-conjugated anti-M13 antibody.

T1 sequence (P08581 25-1390): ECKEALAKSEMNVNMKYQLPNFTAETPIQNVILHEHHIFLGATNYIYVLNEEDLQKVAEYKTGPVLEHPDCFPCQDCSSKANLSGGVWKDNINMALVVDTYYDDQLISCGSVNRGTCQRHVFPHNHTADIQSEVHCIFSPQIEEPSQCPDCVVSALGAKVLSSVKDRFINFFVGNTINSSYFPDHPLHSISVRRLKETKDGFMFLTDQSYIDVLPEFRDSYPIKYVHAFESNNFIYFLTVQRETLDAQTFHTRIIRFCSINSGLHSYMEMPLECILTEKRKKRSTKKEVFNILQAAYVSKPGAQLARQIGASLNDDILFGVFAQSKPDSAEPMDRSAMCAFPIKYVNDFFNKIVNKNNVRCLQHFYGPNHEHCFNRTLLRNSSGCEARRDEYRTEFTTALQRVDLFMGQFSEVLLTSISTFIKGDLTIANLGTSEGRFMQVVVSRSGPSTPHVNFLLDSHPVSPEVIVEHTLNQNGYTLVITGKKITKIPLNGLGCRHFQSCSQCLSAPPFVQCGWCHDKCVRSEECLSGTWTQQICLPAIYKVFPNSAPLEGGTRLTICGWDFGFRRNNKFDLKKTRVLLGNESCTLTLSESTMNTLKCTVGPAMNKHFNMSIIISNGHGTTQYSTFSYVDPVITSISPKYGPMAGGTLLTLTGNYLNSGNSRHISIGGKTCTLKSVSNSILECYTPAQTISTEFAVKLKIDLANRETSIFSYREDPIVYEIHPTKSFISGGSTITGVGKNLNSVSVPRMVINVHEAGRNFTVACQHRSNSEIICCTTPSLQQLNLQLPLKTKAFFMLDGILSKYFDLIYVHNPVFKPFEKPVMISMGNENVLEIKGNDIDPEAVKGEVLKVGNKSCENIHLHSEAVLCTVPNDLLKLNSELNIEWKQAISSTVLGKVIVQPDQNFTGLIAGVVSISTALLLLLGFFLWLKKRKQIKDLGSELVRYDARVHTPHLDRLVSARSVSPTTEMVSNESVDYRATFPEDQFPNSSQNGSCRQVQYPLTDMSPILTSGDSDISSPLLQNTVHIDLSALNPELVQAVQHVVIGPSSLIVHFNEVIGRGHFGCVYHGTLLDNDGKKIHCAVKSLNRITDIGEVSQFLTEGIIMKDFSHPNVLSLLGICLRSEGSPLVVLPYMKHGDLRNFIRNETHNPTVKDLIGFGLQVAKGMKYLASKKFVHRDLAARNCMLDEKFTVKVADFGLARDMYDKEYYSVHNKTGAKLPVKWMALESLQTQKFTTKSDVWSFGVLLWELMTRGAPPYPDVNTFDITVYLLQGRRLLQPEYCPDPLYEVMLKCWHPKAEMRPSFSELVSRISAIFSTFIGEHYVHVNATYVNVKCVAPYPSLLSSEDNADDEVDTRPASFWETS

Molecule | WC ELISA [1] [fold over background] | Protein ELISA (cMet-Fc fusion protein) [fold over background]
AGQYLCTQAALGCPEWGT (Synthetically generated cMet-binding peptide sequence) [SEQ ID NO: 029] | 1.23 | 4.3
AGTLSCSEEYKSCQLQGT (Synthetically generated cMet-binding peptide sequence) [SEQ ID NO: 027] | 1.30 | 3.6
AGWWSCQWELNVCIWQGT (Synthetically generated cMet-binding peptide sequence) [SEQ ID NO: 016] | 1.33 | 4.1
AGYYHCIDDFPQCKWMGT (Synthetically generated cMet-binding peptide sequence) [SEQ ID NO: 017] | 1.37 | 3.9
AGQAVCEWGPFWCQMQGT (Synthetically generated cMet-binding peptide sequence) [SEQ ID NO: 031] | 1.30 | 3.2
AGQFYCSGPPTFQCIMIGT (Synthetically generated cMet-binding peptide sequence) [SEQ ID NO: 089] | 1.23 | 12.4
CC[C@H](C)[C@H](NC(=O)[C@H](Cc1c[nH]c2ccccc12)NC(=O)[C@H](CC(N)=O)NC(=O)CNC(=O)[C@H](C)NC(C)=O)C(=O)N[C@H]1CSSC[C@@H](C(=O)N[C@@H](Cc2c[nH]c3ccccc23)C(=O)N[C@@H](Cc2ccc(O)cc2)C(=O)N[C@@H](Cc2c[nH]cn2)C(=O)NCC(=O)N[C@H](C(=O)NCC(=O)NCC(=O)NCC(=O)N[C@@H](CCCCNC(=O)c2ccc3c(c2)C(=O)OC32c3ccc(O)cc3Oc3cc(O)ccc32)C(N)=O)[C@@H](C)O)NC(=O)CNC(=O)[C@H](Cc2ccccc2)NC(=O)[C@H](CO)NC(=O)[C@@H]2CCCN2C(=O)[C@@H]2CCCN2C(=O)CNC(=O)[C@H]([C@@H](C)O)NC1=O [SEQ ID NO: 078] | 1.40 | 4.7
AGTVYCSWESSECWWVGT (Synthetically generated cMet-binding peptide sequence) [SEQ ID NO: 019] | 1.37 | 3.9
AGSYWCSGPPTFMCRYEGT (Synthetically generated cMet-binding peptide sequence) [SEQ ID NO: 085] | 1.27 | 17.1
AGWFECEFGFWGCNWLGT (Synthetically generated cMet-binding peptide sequence) [SEQ ID NO: 018] | 1.13 | 3.9
AGEIFCVGPPTFTCMWTGT (Synthetically generated cMet-binding peptide sequence) [SEQ ID NO: 096] | 1.27 | 9.7
AGNWICNLSEMRCYPKGT (Synthetically generated cMet-binding peptide sequence) [SEQ ID NO: 013] | 1.40 | 3.9
GSMLMCELWWCRFLAP (Synthetically generated cMet-binding peptide sequence) [SEQ ID NO: 004] | 1.27 | 3.4
GSFILCWWTFCDTNAP (Synthetically generated cMet-binding peptide sequence) [SEQ ID NO: 007] | 1.30 | 3.4
AGVIVCNLSMMYCLYPGT (Synthetically generated cMet-binding peptide sequence) [SEQ ID NO: 023] | 1.33 | 3.2
AGQMWCAEKNSKCYQWGT (Synthetically generated cMet-binding peptide sequence) [SEQ ID NO: 030] | 1.27 | 3.2
AGETFCVGNPSFECWSWGT (Synthetically generated cMet-binding peptide sequence) [SEQ ID NO: 094] | 1.27 | 10.3
AGTIRCNLAMMVCMFEGT (Synthetically generated cMet-binding peptide sequence) [SEQ ID NO: 028] | 1.43 | 3.6

Now from value to molecule:

WC ELISA [1] [fold over background] | Protein ELISA (cMet-Fc fusion protein) [fold over background] | Molecule
1.23 | 3.6 | AQELFQILEKQMWSDFMEWATP (Synthetically generated cMet-binding peptide sequence) [SEQ ID NO: 474]
1.40 | 3.6 | GSMNMCDTTDEISPTCHPSAP (Synthetically generated cMet-binding peptide sequence) [SEQ ID NO: 378]
1.23 | 4.3 | GDPDECQLNRETFEVWCPWHDP (Synthetically generated cMet-binding peptide sequence) [SEQ ID NO: 401]
1.53 | 3.2 | CC[C@H](C)[C@H](NC(=O)[C@@H](NC(=O)[C@H](CCC(=O)O)NC(=O)[C@H](Cc1c[nH]cn1)NC(=O)[C@@H](NC(=O)[C@H](C)NC(=O)[C@@H]1CCCN1C(=O)[C@H](CC(N)=O)NC(=O)[C@H](Cc1ccccc1)NC(=O)[C@H](CCCCN)NC(=O)[C@H](Cc1ccccc1)NC(=O)[C@H](Cc1c[nH]cn1)NC(=O)[C@@H](NC(=O)[C@@H](NC(=O)[C@H](C)NC(=O)[C@H](CCSC)NC(=O)[C@H](CC(=O)O)NC(=O)[C@H](CCC(=O)O)NC(=O)[C@@H](NC(=O)[C@H](CCC(N)=O)NC(=O)[C@H](C)NC(C)=O)C(C)C)[C@@H](C)O)C(C)C)[C@@H](C)O)C(C)C)C(=O)N[C@@H](Cc1c[nH]c2ccccc12)C(=O)NCC(=O)NCC(=O)NCC(=O)N[C@@H](CCCCNC(=O)c1ccc2c(c1)C(=O)OC21c2ccc(O)cc2Oc2cc(O)ccc21)C(N)=O [SEQ ID NO: 492]
1.20 | 8.4 | GDSYNCSWDSKTFEVTCLYADP (Synthetically generated cMet-binding peptide sequence) [SEQ ID NO: 393]
1.30 | 11.3 | CSCC[C@H](NC(=O)CNC(=O)[C@@H]1CCCN1C(=O)[C@H](CO)NC(=O)[C@H](CO)NC(=O)[C@H](Cc1c[nH]c2ccccc12)NC(=O)[C@H](CCCNC(=N)N)NC(=O)[C@H](CCC(N)=O)NC(=O)[C@H](C)NC(C)=O)C(=O)N[C@@H](CO)C(=O)N[C@@H](CCC(N)=O)C(=O)N[C@@H](CO)C(=O)N[C@@H](Cc1ccccc1)C(=O)N[C@H](C(=O)N[C@@H](CC(C)C)C(=O)N[C@@H](CCC(=O)O)C(=O)N[C@@H](Cc1c[nH]c2ccccc12)C(=O)N[C@@H](CCCCN)C(=O)N[C@@H](Cc1c[nH]c2ccccc12)C(=O)N[C@@H](CC(N)=O)C(=O)N[C@@H](CC(=O)O)C(=O)N[C@@H](CC(N)=O)C(=O)NCC(=O)NCC(=O)NCC(=O)N[C@@H](CCCCNC(=O)c1ccc2c(c1)C(=O)OC21c2ccc(O)cc2Oc2cc(O)ccc21)C(N)=O)C(C)C [SEQ ID NO: 453]
1.27 | 5.6 | AQFPLEFDVPNFSYHWLVSFNP (Synthetically generated cMet-binding peptide sequence) [SEQ ID NO: 460]
1.30 | 5.5 | AQRDYLFYWNDGSYQPWQVFVG (Synthetically generated cMet-binding peptide sequence) [SEQ ID NO: 493]
1.37 | 4.4 | CC[C@H](C)[C@H](NC(=O)[C@H](CC(C)C)NC(=O)[C@H](CCCCN)NC(=O)[C@H](CCC(=O)O)NC(=O)[C@@H](NC(=O)[C@@H](NC(=O)[C@@H](NC(=O)[C@H](C)NC(=O)[C@H](CO)NC(=O)[C@H](CC(C)C)NC(=O)[C@H](Cc1c[nH]c2ccccc12)NC(=O)[C@H](CC(=O)O)NC(=O)[C@@H]1CCCN1C(=O)[C@@H](NC(=O)[C@H](CCC(N)=O)NC(=O)[C@H](C)NC(C)=O)C(C)C)C(C)C)C(C)C)[C@@H](C)CC)C(=O)N[C@@H](CCC(=O)O)C(=O)N[C@@H](Cc1ccc(O)cc1)C(=O)NCC(=O)N[C@@H](CCSC)C(=O)N[C@@H](CCSC)C(=O)N[C@H](C(=O)NCC(=O)NCC(=O)NCC(=O)N[C@@H](CCCCNC(=O)c1ccc2c(c1)C(=O)OC21c2ccc(O)cc2Oc2cc(O)ccc21)C(N)=O)C(C)C [SEQ ID NO: 464]
1.30 | 3.5 | AQFSGLVMYGRTHEVQWTFGSM (Synthetically generated cMet-binding peptide sequence) [SEQ ID NO: 477]

Reference: patent US9845340B2, “Peptides that specifically bind HGF receptor (cMet) and uses thereof” (Dyax Corp., priority 2003, dated 2017)
